# From USRE48558 (Genentech, dated 2021)
# Numbering of substitutions follows the chain as printed.
# T1: extracellular domain of human CD79b (human, UniProt P40259 29-159)
# T1 construct: also called huCD79becd; huCD79b-ecd
# T1 sequence: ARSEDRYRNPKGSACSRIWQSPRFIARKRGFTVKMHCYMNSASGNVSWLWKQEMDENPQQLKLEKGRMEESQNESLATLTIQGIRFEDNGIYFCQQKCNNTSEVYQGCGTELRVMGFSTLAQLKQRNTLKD
# B1: huMA79b graft variant SEQ ID NO: 33 (Fab, name in Kabat numbering, V domains shown)
# VH: EVQLVESGGGLVQPGGSLRLSCAASGYTFSSYWIEWVRQAPGKGLEWVGEILPGGGDTNYNEIFKGRFTISADTSKNTAYLQMNSLRAEDTAVYYCTRRVPVYFDYWGQGTLVTVSS
# VL: DIQMTQSPSSLSASVGDRVTITCKASQSVDYDGDSFLNWYQQKPGKAPKLLIYASRYLSRGVPSRFSGSGSGTDFTLTISSLQPEDFATYYCQQSNEDPLTFGQGTKVEIKR
# notes: Fab on phage; rest as huMA79b graft
# B2: huMA79b graft variant SEQ ID NO: 34 (Fab, name in Kabat numbering, V domains shown)
# VH: B1 VH
# VL: B1 VL with S55G, R56S, Y57K, S59L
# notes: as for B1
# B3: huMA79b graft variant SEQ ID NO: 35 (Fab, name in Kabat numbering, V domains shown)
# VH: B1 VH
# VL: B1 VL with S55A, R56S, Y57N, L58R, S59K, R60S
# notes: as for B1
# B4: huMA79b graft variant SEQ ID NO: 36 (Fab, name in Kabat numbering, V domains shown)
# VH: B1 VH
# VL: B1 VL with S55A, R56S, Y57K, S59G, R60S
# notes: as for B1
# B5: huMA79b graft variant SEQ ID NO: 49 (Fab, name in Kabat numbering, V domains shown)
# VH: B1 VH
# VL: B1 VL with S55A, R56S, Y57N, S59E, R60S, E97D
# notes: as for B1
# B6: huMA79b graft variant SEQ ID NO: 50 (Fab, name in Kabat numbering, V domains shown)
# VH: B1 VH
# VL: B1 VL with S55A, R56S, Y57N, S59E, R60S, E97L
# notes: as for B1
# B7: huMA79b graft variant SEQ ID NO: 51 (Fab, name in Kabat numbering, V domains shown)
# VH: B1 VH
# VL: B1 VL with S55A, R56S, Y57N, S59E, R60S, Q93N, Q94N, E97G, T101N
# notes: as for B1
# B8: huMA79b graft variant SEQ ID NO: 52 (Fab, name in Kabat numbering, V domains shown)
# VH: B1 VH
# VL: B1 VL with S55A, R56S, Y57N, S59E, R60S, Q94P, S95D, D98A, L100R
# notes: as for B1
# B9: huMA79b graft variant SEQ ID NO: 53 (Fab, name in Kabat numbering, V domains shown)
# VH: B1 VH
# VL: B1 VL with S55A, R56S, Y57N, S59E, R60S, Q93D, S95R, E97A
# notes: as for B1
# B10: huMA79b graft variant SEQ ID NO: 55 (Fab, name in Kabat numbering, V domains shown)
# VH: B1 VH with T28P, S30R, E35Q
# VL: B1 VL with S55A, R56S, Y57N, S59E, R60S
# notes: as for B1
# B11: huMA79b graft variant SEQ ID NO: 56 (Fab, name in Kabat numbering, V domains shown)
# VH: B1 VH with T28P, S30T, E35N
# VL: B1 VL with S55A, R56S, Y57N, S59E, R60S
# notes: as for B1
# B12: huMA79b graft variant SEQ ID NO: 58 (Fab, name in Kabat numbering, V domains shown)
# VH: B1 VH with S30N, S31R, E35N
# VL: B1 VL with S55A, R56S, Y57N, S59E, R60S
# notes: as for B1
# B13: huMA79b graft variant SEQ ID NO: 59 (Fab, name in Kabat numbering, V domains shown)
# VH: B1 VH with T28S, S30K
# VL: B1 VL with S55A, R56S, Y57N, S59E, R60S
# notes: as for B1
# B14: huMA79b graft variant SEQ ID NO: 61 (Fab, name in Kabat numbering, V domains shown)
# VH: B1 VH with T28Y, S30T
# VL: B1 VL with S55A, R56S, Y57N, S59E, R60S
# notes: as for B1
# B15: huMA79b graft variant SEQ ID NO: 62 (Fab, name in Kabat numbering, V domains shown)
# VH: B1 VH with T28P, S30G, S31R, I34V, E35N
# VL: B1 VL with S55A, R56S, Y57N, S59E, R60S
# notes: as for B1
# B16: huMA79b graft variant SEQ ID NO: 63 (Fab, name in Kabat numbering, V domains shown)
# VH: B1 VH with S30K, S31K
# VL: B1 VL with S55A, R56S, Y57N, S59E, R60S
# notes: as for B1
# B17: huMA79b graft variant SEQ ID NO: 64 (Fab, name in Kabat numbering, V domains shown)
# VH: B1 VH with T28P, S30T, E35Q
# VL: B1 VL with S55A, R56S, Y57N, S59E, R60S
# notes: as for B1
# B18: huMA79b graft variant SEQ ID NO: 65 (Fab, name in Kabat numbering, V domains shown)
# VH: B1 VH with T28P, S30R, S31R
# VL: B1 VL with S55A, R56S, Y57N, S59E, R60S
# notes: as for B1
# B19: huMA79b graft variant SEQ ID NO: 66 (Fab, name in Kabat numbering, V domains shown)
# VH: B1 VH with T28P, F29V, S30G, S31R, E35S
# VL: B1 VL with S55A, R56S, Y57N, S59E, R60S
# notes: as for B1
# B20: huMA79b graft variant SEQ ID NO: 68 (Fab, name in Kabat numbering, V domains shown)
# VH: B1 VH with T28G, S30T, E35S
# VL: B1 VL with S55A, R56S, Y57N, S59E, R60S
# notes: as for B1
# B21: huMA79b graft variant SEQ ID NO: 69 (Fab, name in Kabat numbering, V domains shown)
# VH: B1 VH with S30T, I34L, E35S
# VL: B1 VL with S55A, R56S, Y57N, S59E, R60S
# notes: as for B1
# B22: huMA79b graft variant SEQ ID NO: 70 (Fab, name in Kabat numbering, V domains shown)
# VH: B1 VH with S30T
# VL: B1 VL with S55A, R56S, Y57N, S59E, R60S
# notes: as for B1
# B23: huMA79b graft variant SEQ ID NO: 71 (Fab, name in Kabat numbering, V domains shown)
# VH: B1 VH with S31G, E35N
# VL: B1 VL with S55A, R56S, Y57N, S59E, R60S
# notes: as for B1
# B24: huMA79b graft variant SEQ ID NO: 72 (Fab, name in Kabat numbering, V domains shown)
# VH: B1 VH with S30R, S31R, E35N
# VL: B1 VL with S55A, R56S, Y57N, S59E, R60S
# notes: as for B1
# B25: huMA79b graft variant SEQ ID NO: 73 (Fab, name in Kabat numbering, V domains shown)
# VH: B1 VH with T28S, S30R, E35N
# VL: B1 VL with S55A, R56S, Y57N, S59E, R60S
# notes: as for B1
# B26: huMA79b graft variant SEQ ID NO: 74 (Fab, name in Kabat numbering, V domains shown)
# VH: B1 VH with T28S, S30R, S31R, E35N
# VL: B1 VL with S55A, R56S, Y57N, S59E, R60S
# notes: as for B1
# B27: huMA79b graft variant SEQ ID NO: 75 (Fab, name in Kabat numbering, V domains shown)
# VH: B1 VH with T28S, S30R, S31R
# VL: B1 VL with S55A, R56S, Y57N, S59E, R60S
# notes: as for B1
# B28: huMA79b graft variant SEQ ID NO: 76 (Fab, name in Kabat numbering, V domains shown)
# VH: B1 VH with T28S, S30P, I34L, E35Q
# VL: B1 VL with S55A, R56S, Y57N, S59E, R60S
# notes: as for B1
# B29: huMA79b graft variant SEQ ID NO: 77 (Fab, name in Kabat numbering, V domains shown)
# VH: B1 VH with T28P, S30T, S31R
# VL: B1 VL with S55A, R56S, Y57N, S59E, R60S
# notes: as for B1
# B30: huMA79b graft variant SEQ ID NO: 78 (Fab, name in Kabat numbering, V domains shown)
# VH: B1 VH with T28P, S31G
# VL: B1 VL with S55A, R56S, Y57N, S59E, R60S
# notes: as for B1
# B31: huMA79b graft variant SEQ ID NO: 79 (Fab, name in Kabat numbering, V domains shown)
# VH: B1 VH with T28P, S30R, E35S
# VL: B1 VL with S55A, R56S, Y57N, S59E, R60S
# notes: as for B1
# B32: huMA79b graft variant SEQ ID NO: 80 (Fab, name in Kabat numbering, V domains shown)
# VH: B1 VH with T28P, S30R, E35N
# VL: B1 VL with S55A, R56S, Y57N, S59E, R60S
# notes: as for B1
# B33: huMA79b graft variant SEQ ID NO: 81 (Fab, name in Kabat numbering, V domains shown)
# VH: B1 VH with T28P, S30R, S31G
# VL: B1 VL with S55A, R56S, Y57N, S59E, R60S
# notes: as for B1
# Target: T1, extracellular domain of human CD79b
# Test: phage selection, Fab on phage, plate-bound huCD79becd
row,Binder,binding result
1,B1,binds
2,B2,binds
3,B3,binds
4,B4,binds
5,B5,binds
6,B6,binds
7,B7,binds
8,B8,binds
9,B9,binds
10,B10,binds
11,B11,binds
12,B12,binds
13,B13,binds
14,B14,binds
15,B15,binds
16,B16,binds
17,B17,binds

row,Binder,binding result
1,B18,binds
2,B19,binds
3,B20,binds
4,B21,binds
5,B22,binds
6,B23,binds
7,B24,binds
8,B25,binds
9,B26,binds
10,B27,binds
11,B28,binds
12,B29,binds
13,B30,binds
14,B31,binds
15,B32,binds
16,B33,binds
